This note sets out measurements from US20250042997A1 (PHYLAXIS BIOSCIENCE, published 2025).

The target in assay [1] is T1, human Siglec-8 (full-length, on transfected CHO or 293 cells, or native on human eosinophils) (human, UniProt Q9NYZ4 17-499). The assay can be described thus: flow cytometry, CHO cells transiently transfected with full-length human Siglec-8 (apparent affinity). How it is done:
(§1) Binding of the anti-human Siglec-8 VHHs, B12, D1, E2, and G2, as a bivalent VHH-hIgG1-xELL-Fc (VHH of SEQ ID NO: 49, 55, 61, and 1, respectively linked to an Fe xELL via linker 2, these constructs are also designated cx8982, cx8983, cx8984, and cx10382, respectively) was determined by flow cytometry using CHO cells that had been transiently transfected with full-length human Siglec-8. Binding specificity was assessed using untransfected (UT) CHO cells as a control. For the binding assays, 50,000 Siglec-8 CHOs or UT CHOs were seeded in a 96-well plate and a titration of anti-Siglec8-VHH-xELL was added in FACS Buffer (PBS 1% BSA, 0.1% NaN3 pH 7.4) incubating for 30 minutes at 4° C. After washing, the plates were incubated with an A647-conjugated anti-human Fcγ specific secondary antibody (Jackson ImmunoResearch) diluted 1:2000 in FACS buffer for 30 minutes at 4° C. The plates were washed, and binding was determined by flow cytometry quantitating anti-human A647 mean fluorescent intensity using an Intellicyt iQue Plus.
(§2) The binding was specific to Siglec-8 as there was no detectable binding to untransfected CHO cells for any of the tested constructs.
For orientation: A flow cytometer gives signals particle by particle.

Assay [2] deals with T1, human Siglec-8 (full-length, on …). The experiment in a line: flow cytometry on CHO cells transiently transfected with full-length human Siglec-8; A647 anti-human Fc-gamma secondary; Mean RL1-H. Here is the method:
as §1, §2

For assay [3] the target is unchanged. The assay can be described thus: flow cytometry on human eosinophils (CD16- CCR3+) from whole blood; anti-human AF647 secondary; MFI. The source says: To determine if increasing the valency of Siglec-8 antibodies could enhance agonist activity, the parental llama B12, D1 and E2 VHH sequences were used to generate tetravalent (Tet-B12 (cx8467; SEQ ID NO:50 linked to an Fe), Tet-D1 (cx8469; SEQ ID NO:56 linked to an Fe), and Tet-E2 (cx8463; SEQ ID NO:62 linked to an Fc)) and hexavalent (Hex-B12 (cx8466; SEQ ID NO:51 linked to an Fe), Hex-D1 (cx8523; SEQ ID NO:57 linked to an Fe), and Hex-E2 (cx8522; SEQ ID NO:165 linked to an Fc)), Siglec8-VHH-Fc antibodies linked to a reduced effector function xELL human Fc region via linker 2. The bivalent (Bi-B12 (cx8982), Bi-D1 (cx8983) and Bi-E2 (cx8984)), tetravalent, and hexavalent Siglec8-VHH-Fc antibodies were assessed by flow cytometry for binding to eosinophils (CD16⁻ CCR3⁺). Cells were isolated from whole blood by centrifugation, washed twice with 2% FBS PBS, and resuspended in 1×RBC lysis buffer for 10 minutes at room temperature (RT), washed once in 2% FBS PBS and treated with a second RBC lysis step and washed twice with 2% FBS. Cells were seeded at 200 k/well and resuspended in Human FC block for 10 minutes at RT. Cells were spun down and then resuspended in titrated test articles starting at 200 nM 1:4 and incubated for 30 minutes at 4° C. before being washed twice and resuspended in secondary mixture (2*; anti-CCR3 FITC, anti-human AF647, PI, anti-CD16 BV605) and incubated for 30 minutes at 4° C., washed twice, and bound antibodies were detected via flow cytometry (Novocyte).
As shown in FIG. 2A-2C, bivalent, tetravalent, and hexavalent Siglec8-VHH-Fc antibodies B12 (FIG. 2A), D1 (FIG. 2B) and E2 (FIG. 2C) bound to eosinophils. The calculated affinity was similar between the bivalent, tetravalent, and hexavalent hzSiglec8-VHH-Fc antibodies. The observed Bmax was reduced with increasing valency as anticipated, due the fact that the Fc portion of the antibody was detected in this assay and the ratio of Fc regions to anti-Siglec-8 binding domains is inverse to valency. No binding was observed on other granulocyte populations (CD16⁺ CCR3⁻).

Assay [4] shares this target. The experiment in a line: flow cytometry on 293 cells transiently transfected with full-length human Siglec-8; A647 anti-human Fc-gamma secondary; median fluorescence, nonlinear fit; table under the graph (Kd column without unit, concentration axis nM Ab). How it is done:
(§3) The binding of the lmG2 and humanized versions (further including Siglec8 hzG2v14), formatted as monomeric VHH-hIgG1 fusions proteins using a non-dimerizing human IgG1 Fe variant region lacking a hinge Fe NNT, was assessed by flow cytometry using 293 cells that had been transiently transfected with full-length human Siglec-8 and detected with an anti-human AF647 secondary antibody. Binding specificity was assessed using untransfected 293 cells as a control. For the binding assays, Siglec-8 293 cells or untransformed 293 cells were seeded in a 96 well U-bottom plate with 50 k cells/well in FACS buffer and incubated at 4° C. with a titration of anti-Siglec8-VHH-NNT for 30 minutes. After washing, the plates were incubated with an A647-conjugated anti-human Fcγ specific secondary antibody diluted 1:10,000 in FACS buffer for 20 minutes at 4° C. The plates were washed, and binding was determined by flow cytometry quantitating anti-human A647 median fluorescent intensity. The maximum specific binding (Bmax) and affinity (Kd) for was determined from the flow cytometry binding data using a nonlinear fit model.

For assay [5] the target is unchanged. The assay can be described thus: flow cytometry on 293 cells transiently transfected with full-length human Siglec-8; A647 anti-human Fc-gamma secondary; median fluorescence, nonlinear fit; table under the graph. How it is done:
as §3

The target is the same in assay [6]. The experiment in a line: flow cytometry on 293 cells transiently transfected with full-length human Siglec-8; A647 anti-human Fc-gamma secondary; median fluorescence, nonlinear fit; table under the graph (Kd column without unit, concentration axis nM Ab). Here is the method: as §3
This is another data set of the same source.

T1 sequence (Q9NYZ4 17-499): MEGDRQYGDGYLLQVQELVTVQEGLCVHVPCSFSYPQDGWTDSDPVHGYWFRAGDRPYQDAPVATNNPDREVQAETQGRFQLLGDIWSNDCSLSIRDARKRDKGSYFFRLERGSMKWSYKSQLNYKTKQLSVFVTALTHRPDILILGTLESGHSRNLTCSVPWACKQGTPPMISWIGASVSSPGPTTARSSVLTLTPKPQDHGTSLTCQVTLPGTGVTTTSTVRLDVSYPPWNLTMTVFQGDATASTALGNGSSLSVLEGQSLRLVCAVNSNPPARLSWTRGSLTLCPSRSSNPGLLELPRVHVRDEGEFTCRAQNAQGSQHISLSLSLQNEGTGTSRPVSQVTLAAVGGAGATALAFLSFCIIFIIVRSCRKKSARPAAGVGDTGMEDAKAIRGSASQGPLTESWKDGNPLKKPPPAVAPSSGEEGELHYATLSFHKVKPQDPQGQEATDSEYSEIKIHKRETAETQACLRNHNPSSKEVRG

B1: anti-Siglec8-G2-xELL, bivalent VHH-hIgG1-xELL-Fc (Fc fusion)
chain: QVTLKESGGGLVRTGGSLRLSCAASGSISIFSMYVVAWYRQAPGKQREWVAFIQRGGTANYADSAKGRFTISRDNAKNTVYLQMASLKPDDTAVYYCNYINSDNEIGGPWGQGTQVTVKPGGGGDKTHTCPPCPAPGGPSVFLFPPKPKDTLMISRTPEVTCVVVDVSHEDPEVKFNWYVDGVEVHNAKTKPREEQYNSTYRVVSVLTVLHQDWLNGKEYKCKVSNKALPAPIEKTISKAKGQPREPQVYTLPPSRDELTKNQVSLTCLVKGFYPSDIAVEWESNGQPENNYKTTPPVLDSDGSFFLYSKLTVDKSRWQQGNVFSCSVMHEALHNHYTQKSLSLSPGK
notes: Homodimer through the Fc; also called cx10382
In the case of B1, the Kd in assay [1] was 0.268 nM. Also, the 50% effective concentration (EC50 (read off the curve)) (commonly the concentration that produces a half-maximal response) in assay [2] was about 0.3 nM.

B2: Hex-E2, hexavalent Siglec8-VHH-Fc (xELL) (Fc fusion)
chain: QVQLVESGGGLVQPGGSLRLSCATSGIIFTSNVINWYRQAPGKQREFVAFITSITSGQSTMYADAVKGRFTVSRDNDKNIGYLQMTSLQPEDTARYVCNVGAYWGQGTQVTVKPGGSGGSQVQLVESGGGLVQPGGSLRLSCATSGIIFTSNVINWYRQAPGKQREFVAFITSITSGQSTMYADAVKGRFTVSRDNDKNIGYLQMTSLQPEDTARYVCNVGAYWGQGTQVTVKPGGSGGSQVQLVESGGGLVQPGGSLRLSCATSGIIFTSNVINWYRQAPGKQREFVAFITSITSGQSTMYADAVKGRFTVSRDNDKNIGYLQMTSLQPEDTARYVCNVGAYWGQGTQVTVKPGGGGDKTHTCPPCPAPGGPSVFLFPPKPKDTLMISRTPEVTCVVVDVSHEDPEVKFNWYVDGVEVHNAKTKPREEQYNSTYRVVSVLTVLHQDWLNGKEYKCKVSNKALPAPIEKTISKAKGQPREPQVYTLPPSRDELTKNQVSLTCLVKGFYPSDIAVEWESNGQPENNYKTTPPVLDSDGSFFLYSKLTVDKSRWQQGNVFSCSVMHEALHNHYTQKSLSLSPGK
notes: Homodimer through the Fc; also called cx8522
In the case of B2, the binding result in assay [3] is on record as “binds”.

B3: Siglec8 hzG2v17, monomeric VHH-hIgG1 fusion (Fc NNT) (Fc fusion)
chain: EVQLLESGGGEVQPGGSLRLSCAASGSISIFSIYVVAWYRQAPGKEREWVAFIQRGGTANYAESAKGRFTISRDNAKNTVYLQMSSLRAEDTAVYYCNYINSDNEIGGPWGQGTLVTVKP
notes: Monomeric format; not shown: non-dimerizing human IgG1 Fc variant lacking a hinge (Fc NNT)
B3 came in with a Kd in assay [4] of 0.145 nM. In addition, the Bmax in assay [5] was 1.17e+06 Median (anti-human A647).

B4: Siglec8 hzG2v18, monomeric VHH-hIgG1 fusion (Fc NNT) (Fc fusion)
chain: EVQLLESGGGEVQPGGSLRLSCAASGSISIFSKYVVAWYRQAPGKEREWVAFIQRGGTANYAESAKGRFTISRDNAKNTVYLQMSSLRAEDTAVYYCNYINSDNEIGGPWGQGTLVTVKP
notes: as for B3
In assay [4], B4 yielded a Kd of 0.263 nM. Further, the Bmax in assay [5] is 1.05e+06 Median (anti-human A647).

B5: Siglec8 hzG2v28, monomeric VHH-hIgG1 fusion (Fc NNT) (Fc fusion)
chain: EVQLLESGGGEVQTGGSLRLSCAASGSISIFSMYVVAWYRQAPGKQREWVAFIQRGGTANYAESAKGRFTISRDNAKNTVYLQMSSLRAEDTAVYYCNYINSDNEIGGPWGQGTLVTVKP
notes: as for B3
In the case of B5, the Kd in assay [6] turned out to be 0.0966 nM.

B6: Siglec8 hzG2v25, monomeric VHH-hIgG1 fusion (Fc NNT) (Fc fusion)
chain: EVQLLESGGGLVQTGGSLRLSCAASGSISIFSMYVVAWYRQAPGKQREWVAFIQRGGTANYAESAKGRFTISRDNAKNTVYLQMSSLRAEDTAVYYCNYINSDNEIGGPWGQGTLVTVKP
notes: as for B3
As for B6, the Kd in assay [4] turned out to be 0.0912 nM.

B7: Siglec8 hzG2v26, monomeric VHH-hIgG1 fusion (Fc NNT) (Fc fusion)
chain: EVQLLESGGGLVRPGGSLRLSCAASGSISIFSMYVVAWYRQAPGKQREWVAFIQRGGTANYAESAKGRFTISRDNAKNTVYLQMSSLRAEDTAVYYCNYINSDNEIGGPWGQGTLVTVKP
notes: as for B3
With B7, the Kd in assay [4] is 0.151 nM.

B8: Siglec8 hzG2v30, monomeric VHH-hIgG1 fusion (Fc NNT) (Fc fusion)
chain: EVQLLESGGGLVRTGGSLRLSCAASGSISIFSMYVVAWYRQAPGKQREWVAFIQRGGTANYAESAKGRFTISRDNAKNTVYLQMSSLRAEDTAVYYCNYINSDNEIGGPWGQGTLVTVKP
notes: as for B3
With B8, in assay [6], the Kd came to 0.124 nM.

B9: hzG2v21 (Fc fusion)
VHH: EVQLLESGGGEVQPGGSLRLSCAASGSISIFSSYAMSWYRQAPGKEREWVAFIQRGGTANYAESAKGRFTISRDNAKNTVYLQMSSLRAEDTAVYYCNYINSDNEIGGPWGQGTLVTVKP
notes: also called Siglec8 hzG2v21; monomeric VHH-hIgG1 fusion (Fc NNT); not shown: The non-dimerizing, hinge-less human IgG1 Fc variant (Fc NNT) and any linker to it
B9: the Kd in assay [4] is 256 nM. The Bmax in assay [5] is 1.1e+06 Median (anti-human A647).

B10: hzG2v19 (Fc fusion)
VHH: EVQLLESGGGEVQPGGSLRLSCAASGSISIFSSYAVAWYRQAPGKEREWVAFIQRGGTANYAESAKGRFTISRDNAKNTVYLQMSSLRAEDTAVYYCNYINSDNEIGGPWGQGTLVTVKP
notes: also called Siglec8 hzG2v19; monomeric VHH-hIgG1 fusion (Fc NNT); not shown: The non-dimerizing, hinge-less human IgG1 Fc variant (Fc NNT) and any linker to it
In assay [4], B10 returned a Kd of 41.9 nM. Besides, the Bmax in assay [5] is 1.24e+06 Median (anti-human A647).

B11: Siglec8 hzG2v29, monomeric VHH-hIgG1 fusion (Fc NNT) (Fc fusion)
chain: EVQLLESGGGEVRPGGSLRLSCAASGSISIFSMYVVAWYRQAPGKQREWVAFIQRGGTANYAESAKGRFTISRDNAKNTVYLQMSSLRAEDTAVYYCNYINSDNEIGGPWGQGTLVTVKP
notes: as for B3
In turn, B11 displayed a Kd in assay [6] of 0.111 nM.

B12: anti-Siglec8-B12-xELL, bivalent VHH-hIgG1-xELL-Fc (Fc fusion)
chain: QVQVVESGGGLVQPGGSLRLSCAASGSTSLLNAMAWYRQAPGKERELVAAISSGGGTYYADSVKGRFTISTNNAKNTLYLQMNSLKPEDTAMYYCAPGPNYSDYEEINWGQGTQVTVKPGGGGDKTHTCPPCPAPGGPSVFLFPPKPKDTLMISRTPEVTCVVVDVSHEDPEVKFNWYVDGVEVHNAKTKPREEQYNSTYRVVSVLTVLHQDWLNGKEYKCKVSNKALPAPIEKTISKAKGQPREPQVYTLPPSRDELTKNQVSLTCLVKGFYPSDIAVEWESNGQPENNYKTTPPVLDSDGSFFLYSKLTVDKSRWQQGNVFSCSVMHEALHNHYTQKSLSLSPGK
notes: Homodimer through the Fc; also called cx8982; Bi-B12
As to B12, the “EC50 (read off the curve)” value in assay [3] was about 0.1 nM; in assay [2] it was about 0.4 nM. Moreover, in assay [1], the Kd worked out at 0.367 nM.
